Numbering of substitutions follows the chain as printed.
B1: D-domain SEQ ID NO: 148 (designed binder)
chain: MGSWMEFQGRLPAILARLRALGGSEAELAAFEKEIAAFESELQAYKGKGNPEVEHLRDKAAYIRWMLQAYRHN
B2: D-domain SEQ ID NO: 150 (designed binder)
chain: B1 chain with M5F, G9N, P12Q, A16F, H55N, W65L
B3: D-domain SEQ ID NO: 151 (designed binder)
chain: B1 chain with M5V, Q8D, G9M, P12Q, A16E, K59S, W65L
B4: D-domain SEQ ID NO: 152 (designed binder)
chain: B1 chain with M5V, Q8N, G9A, P12D, A16F, K59Q, W65L
B5: D-domain SEQ ID NO: 153 (designed binder)
chain: B1 chain with Q8N, G9V, P12R, A16D, R19H, H55L, W65F
B6: D-domain SEQ ID NO: 154 (designed binder)
chain: B1 chain with M5I, Q8D, G9T, P12A, L15V, A16H, H55L, W65Y
B7: D-domain SEQ ID NO: 155 (designed binder)
chain: B1 chain with M5I, Q8D, G9Y, P12K, A16H, H55G, W65F, M66L
B8: D-domain SEQ ID NO: 156 (designed binder)
chain: B1 chain with M5Y, Q8E, G9D, P12L, L15K, A16V, H55Y, K59Q, W65F
B9: D-domain SEQ ID NO: 157 (designed binder)
chain: B1 chain with M5Y, G9D, P12S, L15T, A16T, H55L, W65F
B10: D-domain SEQ ID NO: 158 (designed binder)
chain: B1 chain with M5E, Q8D, G9D, P12N, L15V, A16Y, H55M, K59Q, W65L
B11: D-domain SEQ ID NO: 159 (designed binder)
chain: MGSWVEFEQRLHAIVVRLRALGGSEAELAAFEKEIAAFESELQAYKGGGNPEVENLRDQAAYIRFMLQAYRHN
B12: D-domain SEQ ID NO: 160 (designed binder)
chain: B11 chain with Q9W, H12E, G48K, N55H, Q59K, F65Y
B13: D-domain SEQ ID NO: 161 (designed binder)
chain: B1 chain with M5Y, Q8E, G9H, P12K, L15V, A16S, R19G, W65Y
B14: D-domain SEQ ID NO: 162 (designed binder)
chain: B1 chain with Q8K, G9H, P12A, L15T, A16F, H55L, W65L, M66L
B15: D-domain SEQ ID NO: 163 (designed binder)
chain: B1 chain with Q8E, P12H, L15K, A16R, H55V, K59Q, W65L, M66L
B16: D-domain SEQ ID NO: 164 (designed binder)
chain: MGSWSEFVFRLDTIKSRLRALGGSEAELAAFEKEIAAFESELQAYKGKGNPEVETLRDQAAYIRLMLQAYRHN
B17: D-domain SEQ ID NO: 165 (designed binder)
chain: MGSWYEFDERLSAIKLRLRALGGSEAELAAFEKEIAAFESELQAYKGKGNPEVEVLRAQAAYIRAILQAYRHN
B18: D-domain SEQ ID NO: 166 (designed binder)
chain: B17 chain with Y5M, S12W, L16K, V55F, A58H, A65M, I66L
B19: D-domain SEQ ID NO: 167 (designed binder)
chain: B1 chain with M5H, Q8D, P12S, L15K, A16R, R19W, K59Q, W65Y
B20: D-domain SEQ ID NO: 168 (designed binder)
chain: B1 chain with M5Y, Q8D, P12Q, L15I, D58F, K59R, M66I
B21: D-domain SEQ ID NO: 170 (designed binder)
chain: B1 chain with M5V, Q8D, G9N, P12Y, L15V, A16D, D58Q, W65L, M66I
B22: D-domain SEQ ID NO: 169 (designed binder)
chain: MGSWFEFDKRLYAIIHRLRALGGSEAELAAFEKEIAAFESELQAYKGKGNPEVEKLRYKAAIIRLYLQAYRHN
B23: D-domain SEQ ID NO: 171 (designed binder)
chain: MGSWIEFHQRLNAIFNRLRALGGSEAELAAFEKEIAAFESELQAYKGKGNPEVEWLRHHAAYIREMLQAYRHN

Biological target: T1, BCMA (Homo sapiens (Human), UniProt Q02223 1-54, limits assumed)
T1 sequence: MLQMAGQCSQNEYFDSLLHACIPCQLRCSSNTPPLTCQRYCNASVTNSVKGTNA
Experiment: ELISA, format not described
Design: unit not given here

| Binder | ELISA_avg |
| --- | --- |
| B1 | 8.32 |
| B2 | 5.39 |
| B3 | 23.5 |
| B4 | 13.5 |
| B5 | 15.6 |
| B6 | 13.9 |
| B7 | 11.9 |
| B8 | 17.6 |
| B9 | 10.1 |
| B10 | 18.6 |
| B11 | 17.7 |
| B12 | 14.9 |
| B13 | 4.55 |
| B14 | 6.06 |
| B15 | 7.33 |
| B16 | 19.9 |
| B17 | 16.9 |
| B18 | 9.53 |
| B19 | 5.4 |
| B20 | 3.29 |
| B21 | 11.7 |
| B22 | 11.8 |
| B23 | 7.34 |

Source: patent publication US20250026849A1 (ARCELLX, published 2025)
